# B1: YicC (E. coli endoribonuclease, proposed name RNase CS) (enzyme, UniProt P23839 1-287, looked up)
# chain: MIRSMTAYARREIKGEWGSATWEMRSVNQRYLETYFRLPEQFRSLEPVVRERIRSRLTRGKVECTLRYEPDVSAQGELILNEKLAKQLVTAANWVKMQSDEGEINPVDILRWPGVMAAQEQDLDAIAAEILAALDGTLDDFIVARETEGQALKALIEQRLEGVTAEVVKVRSHMPEILQWQRERLVAKLEDAQVQLENNRLEQELVLLAQRIDVAEELDRLEAHVKETYNILKKKEAVGRRLDFMMQEFNRESNTLASKSINAEVTNSAIELKVLIEQMREQIQNIE
# notes: YicC of E. coli, the prototypical member of the YicC family of endoribonucleases; Expressed from a modified pET47b vector; also called apo YicC; source: E. coli (culture of EG1261, IPTG induced), purified (Ni-NTA, SUMO-protease cleavage, Superdex 200; for cryo-EM also Hitrap Q)
# Biological target: the molecule itself
# Assay: crystal structure; apo YicC; hanging drop vapor diffusion, 0.1M Tris pH 8.5, 0.3M lithium sulfate, 25% PEG 3350; six copies in the asymmetric unit
protein,measurement,value
B1,stoichiometry N,6
